# In patent publication US20050124041A1 (YUHAN, published 2005):
# Molecular target: T1, recombinant human tumor necrosis factor-α (Biosource PHC3011, Belgium) (human, UniProt P01375 77-233)
# T1 construct: Bought recombinant protein; also called hTNFα; hTNF-α
# Test: competitive ELISA: TSK11 pre-incubated with soluble hTNFα, then added to hTNFα-coated wells; Scatchard plot analysis (Friguet method)
# Protocol: In vitro binding affinity of TSK11 antibody against hTNFα was determined by ELISA assay. Here, each well was coated with 100 μl of recombinant hTNFα at a concentration of 4 μg/ml. Next, in Micro Tube (AXYGEN, U.S.A.) recombinant hTNFα was diluted with PBS solution supplemented with 0.02% bovine serum albumin to obtain the final concentration ranging from 5×10⁻⁹ M to 1×10⁻¹⁰ M. hTNFα diluents having various concentrations were mixed with 30 μg of TSK11 antibody and maintained at 37° C. for 2 hours. The mixed solution was distributed to the each well coated with the recombinant hTNFα, and incubated at 37° C. for 2 hours. Then, 100 μl of a horseradish peroxiadase substrate solution (Bio-rad, 172-1064) was added to the each well and kept at 37° C. for 3 minutes to induce color development. The absorbance of the each well was measured at 410 nm with ELISA reader (Dinatec inc., U.S.A.).
# Apparent affinity was determined by calculating a reciprocal of the antigen concentration required in inhibiting 50% of the maximum binding in the competitive ELISA according to Scatchard plot analysis (Friguet E. et al., J. of Immunological Method 77: 305-319, 1985).
# T1 sequence (P01375 77-233 limits assumed): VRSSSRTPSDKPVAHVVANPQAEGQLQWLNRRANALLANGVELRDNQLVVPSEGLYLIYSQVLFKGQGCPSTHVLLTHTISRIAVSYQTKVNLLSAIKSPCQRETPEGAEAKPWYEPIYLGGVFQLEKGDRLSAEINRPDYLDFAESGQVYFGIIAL
binder,measurement,value
"monoclonal antibody produced from the hybridoma cell line TSK11 (antibody, IgG1, V domains shown, Mouse hybridoma antibody; also called TSK11 antibody) VH: QVQLVQSGPELKKPGETVKISCKASGYTFTHYGMNWVKQAPGEGLKWMGWINTNTGEPRYDEEFKGRFAFSLETSASTAYLQINNLRREDTATYFCARYDSRGFDCWGQGTTLTVSS VL: QIVLTQSPAIMSASLGERVTMTCTASSSISYNYFHWYQQRPGSSPKLWIYSSSNLASGVPPRISGSGSGTSYSLTISSMEAEDAATYYCHQYERSPWTFGGGTKLEIKR",Kd,1.95 nM
